Assay [1] deals with 人IL-23 (human IL-23, p19/p40 heterodimer) (human) (UniProt P29460). Briefly: SPR (BIAcore), antibody captured on protein A CM5 chip, human IL-23 in flow, HBS-EP pH 7.4, 25 °C. (SPR reads the build-up and loss of mass on a sensor chip optically.)
Assay [2] has the same target. Briefly: cell-based or functional assay.
Assay [3] deals with T1, 人IL-23 (human IL-23, p19/p40 heterodimer) (human, UniProt P29460 23-328).
T1 construct: Bought human IL-23 (R&D Systems); also called hIL-23; 成熟IL-23
T1 sequence 1: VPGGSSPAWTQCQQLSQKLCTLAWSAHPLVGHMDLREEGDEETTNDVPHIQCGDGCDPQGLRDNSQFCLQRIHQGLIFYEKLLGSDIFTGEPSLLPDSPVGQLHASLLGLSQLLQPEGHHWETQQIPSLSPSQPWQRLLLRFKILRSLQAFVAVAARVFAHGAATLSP
T1 sequence 2: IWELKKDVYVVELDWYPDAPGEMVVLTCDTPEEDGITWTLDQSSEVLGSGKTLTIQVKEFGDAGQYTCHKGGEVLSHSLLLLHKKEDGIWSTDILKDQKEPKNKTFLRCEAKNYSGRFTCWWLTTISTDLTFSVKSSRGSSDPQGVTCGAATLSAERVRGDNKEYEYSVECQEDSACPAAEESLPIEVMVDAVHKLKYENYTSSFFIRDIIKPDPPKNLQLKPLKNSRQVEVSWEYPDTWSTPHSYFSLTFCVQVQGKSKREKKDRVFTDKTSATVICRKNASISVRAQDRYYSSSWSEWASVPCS
Briefly: SPR (BIAcore).

Assay [4] addresses T1, 人IL-23 (human IL-23, p19/p40 …). Briefly: cell-based or functional assay.

Usually Kd stands for a measure of binding affinity in units of concentration. A word on the koff: it is a measure of how fast the partners let go of each other. A low value points to slow dissociation. The term kon denotes a measure of how fast the partners come together. In the case of “MAB1290 (小鼠抗人IL-23单克隆抗体, 安迪生物科技 R&D Systems) (antibody)”, in assay [1], the Kd was 21.4 nM, the koff turned out to be 0.000768 s⁻¹ and the kon was 36800 M⁻¹ s⁻¹. The same molecule came in with an IC50, 小鼠脾细胞测定法 (IL-23-stimulated IL-17 secretion of mouse splenocytes) in assay [2] of 2800 pM.

B1: MAbQF20 (antibody, V domains shown)
VH: QVQLVQSGAEVKKPGASVKVSCKVSGKTFWSYGINWVRQAPGKGLEWMGYIYIGTGYTEPNPKYKGRVTMTEDTSTDTAYMELSSLRSEDTAVYYCATIGGYYGNFADWGQGTTVTVSS
VL: DVVMTQSPLSLPVTLGQPASISCRSSQSLLISGGKTYLNWFQQRPGQSPRRLIYLVSKLDQGVPDRFSGSGSGTDFTLKISRVEAEDVGVYYCWQGTYFPLTFGQGTKLEIK
notes: Humanised antibody
On to B1, for which the Kd in assay [3] is under 0.16 nM. In assay [4], the “IC50, 小鼠脾细胞测定法” value was under 20 pM and the “IC50, 小鼠脾细胞测定法 (IL-23-stimulated IL-17 secretion of mouse splenocytes)” value worked out at 2 pM.

B2: MAbQF37 (antibody, V domains shown)
VH: QVQLVQSGAEVKKPGASVKVSCKVSGKTFWSYGINWVRQAPGKGLEWMGYIYIGTGYTEPNPKYKGRVTMTEDTSTDTAYMELSSLRSEDTAVYYCATIGGYYGNFDQWGQGTTVTVSS
VL: DVVMTQSPLSLPVTLGQPASISCRSSQSLLISGGKTYLNWFQQRPGQSPRRLIYLVSKLDQGVPDRFSGSGSGTDFTLKISRVEAEDVGVYYCWQGTYFPLTFGQGTKLEIK
notes: Humanised antibody
In assay [3], B2 displayed a Kd of under 0.16 nM. In assay [4], the “IC50, 小鼠脾细胞测定法” value was under 20 pM and the “IC50, 小鼠脾细胞测定法 (IL-23-stimulated IL-17 secretion of mouse splenocytes)” value stood at 2 pM.

The record behind these values is CN101248088A (LILLY CO ELI, dated 2008).
